B1: GST-EZH2 (465–519) (domain or fragment)
chain: not shown
notes: Vector pGEX-4T-1; source: E. coli; held on Glutathione-Sepharose beads from bacterial lysate
B2: GST-EZH2 (465–545) (domain or fragment)
chain: not shown
notes: Vector pGEX-4T-1; source: E. coli; held on Glutathione-Sepharose beads from bacterial lysate (pull-down); purified (SPR)
B3: GST-EZH2 (385–618) (domain or fragment)
chain: not shown
notes: as for B2

The binders below were run against T1, His×6-YY1 (UniProt P25490 1-414) (assay: pull-down; GST-EZH2 fragments from E. coli lysates held on Glutathione-Sepharose beads, washed, 1.0 µg of purified His×6-YY1 added for 4 h at 4 °C; 20 mM Tris-HCl pH 7.5, 150 mM NaCl, 0.1% NP-40). Conditions: both partners purified.
T1 construct: Yin Yang 1 (YY1); The construct and its host are not described in the methods; also called purified His×6-YY1
T1 sequence (P25490 whole entry, the tested form may be a part): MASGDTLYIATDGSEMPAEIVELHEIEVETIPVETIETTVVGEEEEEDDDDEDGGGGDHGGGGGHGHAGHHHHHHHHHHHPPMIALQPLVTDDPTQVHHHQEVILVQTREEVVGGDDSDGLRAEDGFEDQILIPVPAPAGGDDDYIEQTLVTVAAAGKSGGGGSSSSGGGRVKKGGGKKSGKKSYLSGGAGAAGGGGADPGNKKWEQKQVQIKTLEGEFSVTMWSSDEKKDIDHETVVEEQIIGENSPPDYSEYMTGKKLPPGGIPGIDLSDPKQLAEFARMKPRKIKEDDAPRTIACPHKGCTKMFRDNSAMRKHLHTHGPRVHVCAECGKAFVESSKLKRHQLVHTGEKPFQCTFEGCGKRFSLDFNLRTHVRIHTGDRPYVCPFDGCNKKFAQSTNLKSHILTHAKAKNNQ

binding result	Binder
binds	B1
binds	B2
binds	B3
